Results taken from patent publication US20190241648A1 (STATEN BIOTECHNOLOGY B V, published 2019).
Ends that are not written are not given here.

How the values were obtained:
Assay in all cases: cyclic peptide substitution array
[1] = target: T1, ApoC3 peptide S62L (human, thioether (positions not given here); also: cyclic (thioether), ring places not given here)
T1 peptide: DKFLEFWDLDPEV
How it was run: (§1)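 Peptide microarrays incubated with antibody samples, then stained with goat anti-human IgG (Fc) DyLight680 and anti-HA DyLight800 control antibodies, scanned at intensity 7/7 (red/green). Secondary-only pre-stain checked background binding; framing HA peptides served as quality control; substitution effects read as changes in spot intensity.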

[2] = target: T2, ApoC3 peptide S62T (human, thioether (positions not given here); also: cyclic (thioether), ring places not given here)
T2 peptide: DKFTEFWDLDPEV
How it was run: as §1

[3] = target: T3, ApoC3 peptide D68C (human, cyclic (thioether))
T3 peptide: DKFSEFWDLCPEV
How it was run: as §1

[4] = target: T4, ApoC3 peptide W65I (human, cyclic (thioether))
T4 peptide: DKFSEFIDLDPEV
How it was run: as §1

[5] = target: T5, ApoC3 peptide W65H (human, cyclic (thioether))
T5 peptide: DKFSEFHDLDPEV
How it was run: as §1

[6] = target: T6, ApoC3 peptide L67E (human, thioether (positions not given here); not fully specified (bridges); also: thioether between a C-terminal Cys side chain and a modified N-terminus, the Cys is not in the chain)
T6 peptide: DKFSEFWDEDPEV
How it was run: as §1

[7] = target: T7, ApoC3 peptide D59V (human, thioether (positions not given here); not fully specified (C-terminus, bridges); also: cyclised via thioether between a C-terminal Cys and a modified N-terminus, the Cys and the N-terminal …)
T7 peptide: VKFSEFWDLDPEV
How it was run: as §1

[8] = target: T8, ApoC3 peptide S62D (human, not fully specified; cyclic (thioether))
T8 peptide: DKFDEFWDLDPEV
How it was run: as §1

[9] = target: T9, ApoC3 peptide V71C (human, thioether (positions not given here); also: cyclic (thioether), ring places not given here)
T9 peptide: DKFSEFWDLDPEC
How it was run: as §1

[10] = target: T10, ApoC3 peptide S62I (human, thioether (positions not given here); also: cyclic (thioether), ring places not given here)
T10 peptide: DKFIEFWDLDPEV
How it was run: as §1

[11] = target: T11, ApoC3 peptide D66K (human, not fully specified; cyclic (thioether))
T11 peptide: DKFSEFWKLDPEV
How it was run: as §1

[12] = target: T12, ApoC3 peptide P69T (human, not fully specified; cyclic (thioether))
T12 peptide: DKFSEFWDLDTEV
How it was run: as §1

[13] = target: T13, ApoC3 peptide F64L (human, thioether (positions not given here); not fully specified (bridges); also: cyclic (thioether), positions not given here)
T13 peptide: DKFSELWDLDPEV
How it was run: as §1

[14] = target: T14, ApoC3 peptide E70G (human, cyclic (thioether))
T14 peptide: DKFSEFWDLDPGV
How it was run: as §1

[15] = target: T15, ApoC3 peptide E63F (human, not fully specified; cyclic (thioether))
T15 peptide: DKFSFFWDLDPEV
How it was run: as §1

[16] = target: T16, ApoC3 peptide D68H (human, cyclic (thioether))
T16 peptide: DKFSEFWDLHPEV
How it was run: as §1

[17] = target: T17, ApoC3 peptide F61G (human, cyclic (thioether))
T17 peptide: DKGSEFWDLDPEV
How it was run: as §1

[18] = target: T18, ApoC3 peptide D68N (human, cyclic (thioether))
T18 peptide: DKFSEFWDLNPEV
How it was run: as §1

[19] = target: T19, ApoC3 peptide K60L (human, cyclic (thioether))
T19 peptide: DLFSEFWDLDPEV
How it was run: as §1

[20] = target: T20, ApoC3 peptide K60A (human, thioether (positions not given here); not fully specified (bridges); also: cyclic (thioether), positions not given here)
T20 peptide: DAFSEFWDLDPEV
How it was run: as §1

[21] = target: T21, ApoC3 peptide F61P (human, cyclic (thioether))
T21 peptide: DKPSEFWDLDPEV
How it was run: as §1

[22] = target: T22, ApoC3 peptide E63H (human, cyclic (thioether))
T22 peptide: DKFSHFWDLDPEV
How it was run: as §1

[23] = target: T23, ApoC3 peptide W65F (human, not fully specified; cyclic (thioether))
T23 peptide: DKFSEFFDLDPEV
How it was run: as §1

[24] = target: T24, ApoC3 peptide E63S (human, cyclic (thioether))
T24 peptide: DKFSSFWDLDPEV
How it was run: as §1

[25] = target: T25, ApoC3 peptide V71M (human, thioether (positions not given here); also: cyclic (thioether), ring places not given here)
T25 peptide: DKFSEFWDLDPEM
How it was run: as §1

[26] = target: T26, ApoC3 peptide P69F (human, not fully specified; cyclic (thioether))
T26 peptide: DKFSEFWDLDFEV
How it was run: as §1

[27] = target: T27, ApoC3 peptide D68S (human, cyclic (thioether))
T27 peptide: DKFSEFWDLSPEV
How it was run: as §1

[28] = target: T28, ApoC3 peptide D59S (human, thioether (positions not given here); not fully specified (C-terminus, bridges); also: cyclised via thioether between a C-terminal Cys and a modified N-terminus, the Cys and the N-terminal …)
T28 peptide: SKFSEFWDLDPEV
How it was run: as §1

[29] = target: T29, ApoC3 peptide D59M (human, thioether (positions not given here); not fully specified (C-terminus, bridges))
T29 peptide: MKFSEFWDLDPEV
How it was run: as §1

[30] = target: T30, ApoC3 peptide S62G (human, not fully specified; cyclic (thioether))
T30 peptide: DKFGEFWDLDPEV
How it was run: as §1

B1: Llama antibody 5E5 (antibody, V domains shown)
VH: QLQLVESGGGLVQPGGSLRLSCAASGFTFGTYSMRWVRQVPRKALEWVSSISTDGGGTAYRDSVKGRFTISRDNAKNTLYLQMNNLKPEDTAIYYCVIAGYSDWGQGTQVTVSS
VL: ATMLTQSPGSLSVVPGESASISCKTSQGLVHSDGKTYFYWFLQKPGQSPQQLIYQVSNRASGVPDRFTGSGSGTDFTLKISGVKAEDAGVYYCAQGTYYPHTFGSGTRLEIK
notes: detected with goat anti-human IgG (Fc); also called mAb 5E5
[1]
  % of binding to wild-type peptide: 3.83%
[2]
  % of binding to wild-type peptide: 215%
[3]
  % of binding to wild-type peptide: 5.46%
[4]
  % of binding to wild-type peptide: 0%
[5]
  % of binding to wild-type peptide: 0%
[6]
  % of binding to wild-type peptide: 0.45%
[7]
  % of binding to wild-type peptide: 43.3%
[8]
  % of binding to wild-type peptide: 0%
[9]
  % of binding to wild-type peptide: 56.9%
[10]
  % of binding to wild-type peptide: 0.64%
[11]
  % of binding to wild-type peptide: 0%
[12]
  % of binding to wild-type peptide: 113%
[13]
  % of binding to wild-type peptide: 118%
[14]
  % of binding to wild-type peptide: 46.1%
[15]
  % of binding to wild-type peptide: 57.1%
[16]
  % of binding to wild-type peptide: 0%
[17]
  % of binding to wild-type peptide: 0.74%
[18]
  % of binding to wild-type peptide: 0%
[19]
  % of binding to wild-type peptide: 107%
[20]
  % of binding to wild-type peptide: 143%
[21]
  % of binding to wild-type peptide: 52.7%
[22]
  % of binding to wild-type peptide: 49.9%
[23]
  % of binding to wild-type peptide: 5.5%
[24]
  % of binding to wild-type peptide: 47.9%
[25]
  % of binding to wild-type peptide: 138%
[26]
  % of binding to wild-type peptide: 11.6%
[27]
  % of binding to wild-type peptide: 0.17%
[28]
  % of binding to wild-type peptide: 57.7%
[29]
  % of binding to wild-type peptide: 57.7%
[30]
  % of binding to wild-type peptide: 0.88%
